Literature values in PMC6958331.
pKd: −log10 of the molar value.

Biological target: hemopexin (Homo sapiens) (UniProt P02790)
Chain of UniProt P02790 (P02790 24-462): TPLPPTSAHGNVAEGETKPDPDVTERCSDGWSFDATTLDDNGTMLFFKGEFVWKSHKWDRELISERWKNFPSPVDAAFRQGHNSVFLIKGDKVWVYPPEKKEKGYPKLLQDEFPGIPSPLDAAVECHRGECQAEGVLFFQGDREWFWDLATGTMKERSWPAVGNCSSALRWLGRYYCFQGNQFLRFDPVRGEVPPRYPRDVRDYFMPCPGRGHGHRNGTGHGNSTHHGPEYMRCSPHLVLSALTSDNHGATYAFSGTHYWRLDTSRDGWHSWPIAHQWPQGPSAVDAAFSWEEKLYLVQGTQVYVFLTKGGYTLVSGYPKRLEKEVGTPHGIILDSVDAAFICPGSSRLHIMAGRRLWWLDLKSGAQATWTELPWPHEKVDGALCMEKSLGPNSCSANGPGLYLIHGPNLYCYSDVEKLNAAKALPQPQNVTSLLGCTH

- pKd: 8.40
Substance: LRP1/CD91 (from UniProt Q07954)
